The values that follow come from patent publication EP4302836A1 (Danmarks Tekniske Universitet, dated 2024).

The target of test [1] is T1, Myotoxin II from Bothrops asper (Basic phospholipase A2 homolog 2, Uniprot P24605) (Bothrops asper, UniProt P24605 17-137). In words: cell-based or functional assay.
Test [2] addresses T1, Myotoxin II from Bothrops asper (Basic …). In words: expression-normalized capture (ENC) assay, antigen at 10 nM (data not shown).
For test [3] the target is unchanged. In words: monoclonal IgG ELISA, dilution series (Fig. 2A legend). (An ELISA detects its analyte on a solid surface through an enzyme-linked reagent.)

T1 sequence (P24605 17-137, one chain of several): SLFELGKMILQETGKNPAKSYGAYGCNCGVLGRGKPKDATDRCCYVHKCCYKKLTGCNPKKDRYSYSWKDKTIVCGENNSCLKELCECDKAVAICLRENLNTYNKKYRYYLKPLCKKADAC

B1: TPL0039_05_G08 IgG (antibody, V domains shown)
VH: EVQLVESGGGVVQPGRSLRLSCAASGFTFSSYGMHWVRQAPGKGLEWVAVISYDGSNKYYADSVKGRFTISRDNSKNTLYLQMNSLRAEDTAVYYCARTNYDSGDAFDIWGQGTLVTVSS
VL: NFMLTQPHSVSESPGKTVTISCTRSSGSIASNYVQWYQQRPGSSPTTVIYEDNQRPSGVPDRFSGSIDSSSNSASLTISGLKTEDEADYYCQSYDSSTVVFGGGTKLTVLG
As to B1, the “fibroblast viability assay (CellTiter-Glo), toxin:IgG ratio for full neutralization” value in test [1] was 1 mol IgG per mol toxin (printed as toxin:IgG 1:1).

B2: TPL0039_05_B12 IgG (antibody, V domains shown)
VH: EVQLVESGGGVVQPGRSLRLSCAASGFTFSSYGMHWVRQAPGKGLEWVAVISYDGSNKYYADSVKGRFTISRDNSKNTLYLQMNSLRAEDTAVYYCAGWTEGDAFDIWGQGTLVTVSS
VL: NFMLTQPHSVSESPGKTVTISCTRSSGSIASNYVQWYQQRPGSAPSTVIYEDNRRPSGVPDRFSGSIDSASNSASLTISGLKTEDEADYYCQSYDSSSVVFGGGTKITVLG
Turning to B2, in test [1], the “fibroblast viability assay (CellTiter-Glo), toxin:IgG ratio for full neutralization” value was 0.5 mol IgG per mol toxin (printed as toxin:IgG 1:0.5).

B3: TPL0039_05_B04 IgG (antibody, V domains shown)
VH: EVQLLESGGGVVQPGRSLRLSCAASGFTFSSYGMHWVRQAPGKGLEWVAVISYDGSNKYYADSVKGRFTISRDNSKNTLYLQMNSLRAEDTAVYYCARVGENEAFDIWGQGTMVTVSS
VL: NFMLTQPHSVSESPGKTVTISCTRSSGSIARNYVQWYQQRPGSAPTTVIYEDNQRPSGVPDRFSGSIDSSSNSASLTISGLKTEDEADYYCQSYDSSTVVFGGGTKLTVLG
Regarding B3, in test [1], the “fibroblast viability assay (CellTiter-Glo), toxin:IgG ratio for full neutralization” value is 0.5 mol IgG per mol toxin (printed as toxin:IgG 1:0.5).

B4: TPL0039_05_F04 scFv (scFv, V domains shown)
VH: QVQLVESGGGVVQPGRSPRLSCAASGFTFSSYGMHWVRQAPGKGLEWVAVISYDGSNKYYADSVKGRFTISRDNSKNTLYLQMNSLRAEDTAVYYCAKDLEYSSSSWGQGTLVTVSS
VL: NFMLTQPHSVSESPGKTVTISCTRSSGSIASNYVQWFQQRPGSSPTTVIYEDDQRPSGVPDRFSGSIDSSSNSASLTISGLKTEDEATYFCQSYDSSTVVFGGGTKVTVLG
As to B4, the binding result in test [2] is recorded as “binds”.

B5: TPL0039_05_F04 IgG (antibody, V domains shown)
VH: QVQLVESGGGVVQPGRSPRLSCAASGFTFSSYGMHWVRQAPGKGLEWVAVISYDGSNKYYADSVKGRFTISRDNSKNTLYLQMNSLRAEDTAVYYCAKDLEYSSSSWGQGTLVTVSS
VL: NFMLTQPHSVSESPGKTVTISCTRSSGSIASNYVQWFQQRPGSSPTTVIYEDDQRPSGVPDRFSGSIDSSSNSASLTISGLKTEDEATYFCQSYDSSTVVFGGGTKVTVLG
Regarding B5, the binding result in test [3] is on record as “binds”.

B6: TPL0039_05_A03 IgG (antibody, V domains shown)
VH: QVQLVESGGGLAKPGRSLRLSCAVSGFTFSSYGMHWVRQAPGKGLEWVAVISYDGSNKYYADSVKGRFTISRDNSKNTLYLQMNSLRAEDTAVYYCASTLQQLDAFDIWGQGTMVTVSS
VL: NFMLTQPHSVSESPGKTITISCTRSSGSIASNYVQWYQQRPGSVPTPVIYEDDRRPSGVPDRFSGSIDSSSNSASLTISGLKTEDEADYYCQSYDSSSVVFGGGTKITVLG
In the case of B6, the “fibroblast viability assay (CellTiter-Glo), toxin:IgG ratio for full neutralization” value in test [1] is 0.5 mol IgG per mol toxin (printed as toxin:IgG 1:0.5).
